Results on six molecules are retold here after US20210139548A1 (published 2021).

Sequences and labels used below:
B1: Compound 52 (peptide)
peptide: Isovaleryl-APEK([AEEA-AEEA-γGlu-C18 diacid])AEEDASEEELQRYYVSLRHYYNWLTRQRY-NH2
SMILES: CC(C)CC(=O)N[C@@H](C)C(=O)N1CCC[C@H]1C(=O)N[C@@H](CCC(=O)O)C(=O)N[C@@H](CCCCNC(=O)COCCOCCNC(=O)COCCOCCNC(=O)CC[C@H](NC(=O)CCCCCCCCCCCCCCCCC(=O)O)C(=O)O)C(=O)N[C@@H](C)C(=O)N[C@@H](CCC(=O)O)C(=O)N[C@@H](CCC(=O)O)C(=O)N[C@@H](CC(=O)O)C(=O)N[C@@H](C)C(=O)N[C@@H](CO)C(=O)N[C@@H](CCC(=O)O)C(=O)N[C@@H](CCC(=O)O)C(=O)N[C@@H](CCC(=O)O)C(=O)N[C@@H](CC(C)C)C(=O)N[C@@H](CCC(N)=O)C(=O)N[C@@H](CCCNC(=N)N)C(=O)N[C@@H](Cc1ccc(O)cc1)C(=O)N[C@@H](Cc1ccc(O)cc1)C(=O)N[C@H](C(=O)N[C@@H](CO)C(=O)N[C@@H](CC(C)C)C(=O)N[C@@H](CCCNC(=N)N)C(=O)N[C@@H](Cc1c[nH]cn1)C(=O)N[C@@H](Cc1ccc(O)cc1)C(=O)N[C@@H](Cc1ccc(O)cc1)C(=O)N[C@@H](CC(N)=O)C(=O)N[C@@H](Cc1c[nH]c2ccccc12)C(=O)N[C@@H](CC(C)C)C(=O)N[C@H](C(=O)N[C@@H](CCCNC(=N)N)C(=O)N[C@@H](CCC(N)=O)C(=O)N[C@@H](CCCNC(=N)N)C(=O)N[C@@H](Cc1ccc(O)cc1)C(N)=O)[C@@H](C)O)C(C)C
B2: Compound 60 (peptide)
peptide: Isovaleryl-APEK([AEEA-AEEA-γGlu-C18 diacid])PEEAASPEELEQYYVSLRHYYNWLTRQRY-NH2
SMILES: CC(C)CC(=O)N[C@@H](C)C(=O)N1CCC[C@H]1C(=O)N[C@@H](CCC(=O)O)C(=O)N[C@@H](CCCCNC(=O)COCCOCCNC(=O)COCCOCCNC(=O)CC[C@H](NC(=O)CCCCCCCCCCCCCCCCC(=O)O)C(=O)O)C(=O)N1CCC[C@H]1C(=O)N[C@@H](CCC(=O)O)C(=O)N[C@@H](CCC(=O)O)C(=O)N[C@@H](C)C(=O)N[C@@H](C)C(=O)N[C@@H](CO)C(=O)N1CCC[C@H]1C(=O)N[C@@H](CCC(=O)O)C(=O)N[C@@H](CCC(=O)O)C(=O)N[C@@H](CC(C)C)C(=O)N[C@@H](CCC(=O)O)C(=O)N[C@@H](CCC(N)=O)C(=O)N[C@@H](Cc1ccc(O)cc1)C(=O)N[C@@H](Cc1ccc(O)cc1)C(=O)N[C@H](C(=O)N[C@@H](CO)C(=O)N[C@@H](CC(C)C)C(=O)N[C@@H](CCCNC(=N)N)C(=O)N[C@@H](Cc1c[nH]cn1)C(=O)N[C@@H](Cc1ccc(O)cc1)C(=O)N[C@@H](Cc1ccc(O)cc1)C(=O)N[C@@H](CC(N)=O)C(=O)N[C@@H](Cc1c[nH]c2ccccc12)C(=O)N[C@@H](CC(C)C)C(=O)N[C@H](C(=O)N[C@@H](CCCNC(=N)N)C(=O)N[C@@H](CCC(N)=O)C(=O)N[C@@H](CCCNC(=N)N)C(=O)N[C@@H](Cc1ccc(O)cc1)C(N)=O)[C@@H](C)O)C(C)C
B3: Compound 56 (peptide)
peptide: Isovaleryl-APEK([AEEA-AEEA-γGlu-C18 diacid])PEADAEPEELQRYYVSLRHYYNWLTRQRY-NH2
SMILES: CC(C)CC(=O)N[C@@H](C)C(=O)N1CCC[C@H]1C(=O)N[C@@H](CCC(=O)O)C(=O)N[C@@H](CCCCNC(=O)COCCOCCNC(=O)COCCOCCNC(=O)CC[C@H](NC(=O)CCCCCCCCCCCCCCCCC(=O)O)C(=O)O)C(=O)N1CCC[C@H]1C(=O)N[C@@H](CCC(=O)O)C(=O)N[C@@H](C)C(=O)N[C@@H](CC(=O)O)C(=O)N[C@@H](C)C(=O)N[C@@H](CCC(=O)O)C(=O)N1CCC[C@H]1C(=O)N[C@@H](CCC(=O)O)C(=O)N[C@@H](CCC(=O)O)C(=O)N[C@@H](CC(C)C)C(=O)N[C@@H](CCC(N)=O)C(=O)N[C@@H](CCCNC(=N)N)C(=O)N[C@@H](Cc1ccc(O)cc1)C(=O)N[C@@H](Cc1ccc(O)cc1)C(=O)N[C@H](C(=O)N[C@@H](CO)C(=O)N[C@@H](CC(C)C)C(=O)N[C@@H](CCCNC(=N)N)C(=O)N[C@@H](Cc1c[nH]cn1)C(=O)N[C@@H](Cc1ccc(O)cc1)C(=O)N[C@@H](Cc1ccc(O)cc1)C(=O)N[C@@H](CC(N)=O)C(=O)N[C@@H](Cc1c[nH]c2ccccc12)C(=O)N[C@@H](CC(C)C)C(=O)N[C@H](C(=O)N[C@@H](CCCNC(=N)N)C(=O)N[C@@H](CCC(N)=O)C(=O)N[C@@H](CCCNC(=N)N)C(=O)N[C@@H](Cc1ccc(O)cc1)C(N)=O)[C@@H](C)O)C(C)C
B4: Compound 63 (peptide)
peptide: Isovaleryl-APEK([AEEA-AEEA-γGlu-C18 diacid])PEEDASPEELQRYYVSLRAYYNWLTRQRY-NH2
SMILES: CC(C)CC(=O)N[C@@H](C)C(=O)N1CCC[C@H]1C(=O)N[C@@H](CCC(=O)O)C(=O)N[C@@H](CCCCNC(=O)COCCOCCNC(=O)COCCOCCNC(=O)CC[C@H](NC(=O)CCCCCCCCCCCCCCCCC(=O)O)C(=O)O)C(=O)N1CCC[C@H]1C(=O)N[C@@H](CCC(=O)O)C(=O)N[C@@H](CCC(=O)O)C(=O)N[C@@H](CC(=O)O)C(=O)N[C@@H](C)C(=O)N[C@@H](CO)C(=O)N1CCC[C@H]1C(=O)N[C@@H](CCC(=O)O)C(=O)N[C@@H](CCC(=O)O)C(=O)N[C@@H](CC(C)C)C(=O)N[C@@H](CCC(N)=O)C(=O)N[C@@H](CCCNC(=N)N)C(=O)N[C@@H](Cc1ccc(O)cc1)C(=O)N[C@@H](Cc1ccc(O)cc1)C(=O)N[C@H](C(=O)N[C@@H](CO)C(=O)N[C@@H](CC(C)C)C(=O)N[C@@H](CCCNC(=N)N)C(=O)N[C@@H](C)C(=O)N[C@@H](Cc1ccc(O)cc1)C(=O)N[C@@H](Cc1ccc(O)cc1)C(=O)N[C@@H](CC(N)=O)C(=O)N[C@@H](Cc1c[nH]c2ccccc12)C(=O)N[C@@H](CC(C)C)C(=O)N[C@H](C(=O)N[C@@H](CCCNC(=N)N)C(=O)N[C@@H](CCC(N)=O)C(=O)N[C@@H](CCCNC(=N)N)C(=O)N[C@@H](Cc1ccc(O)cc1)C(N)=O)[C@@H](C)O)C(C)C
B5: Compound 55 (peptide)
peptide: Isovaleryl-APEK([AEEA-AEEA-γGlu-C18 diacid])PEEDASPEEAQRYYVSLRHYYNWLTRQRY-NH2
SMILES: CC(C)CC(=O)N[C@@H](C)C(=O)N1CCC[C@H]1C(=O)N[C@@H](CCC(=O)O)C(=O)N[C@@H](CCCCNC(=O)COCCOCCNC(=O)COCCOCCNC(=O)CC[C@H](NC(=O)CCCCCCCCCCCCCCCCC(=O)O)C(=O)O)C(=O)N1CCC[C@H]1C(=O)N[C@@H](CCC(=O)O)C(=O)N[C@@H](CCC(=O)O)C(=O)N[C@@H](CC(=O)O)C(=O)N[C@@H](C)C(=O)N[C@@H](CO)C(=O)N1CCC[C@H]1C(=O)N[C@@H](CCC(=O)O)C(=O)N[C@@H](CCC(=O)O)C(=O)N[C@@H](C)C(=O)N[C@@H](CCC(N)=O)C(=O)N[C@@H](CCCNC(=N)N)C(=O)N[C@@H](Cc1ccc(O)cc1)C(=O)N[C@@H](Cc1ccc(O)cc1)C(=O)N[C@H](C(=O)N[C@@H](CO)C(=O)N[C@@H](CC(C)C)C(=O)N[C@@H](CCCNC(=N)N)C(=O)N[C@@H](Cc1c[nH]cn1)C(=O)N[C@@H](Cc1ccc(O)cc1)C(=O)N[C@@H](Cc1ccc(O)cc1)C(=O)N[C@@H](CC(N)=O)C(=O)N[C@@H](Cc1c[nH]c2ccccc12)C(=O)N[C@@H](CC(C)C)C(=O)N[C@H](C(=O)N[C@@H](CCCNC(=N)N)C(=O)N[C@@H](CCC(N)=O)C(=O)N[C@@H](CCCNC(=N)N)C(=O)N[C@@H](Cc1ccc(O)cc1)C(N)=O)[C@@H](C)O)C(C)C
B6: Compound 61 (peptide)
peptide: Isovaleryl-APEK([AEEA-AEEA-γGlu-C18 diacid])PPEDASPEEIQRYYVSLRHYYNWLTRQRY-NH2
SMILES: CC[C@H](C)[C@H](NC(=O)[C@H](CCC(=O)O)NC(=O)[C@H](CCC(=O)O)NC(=O)[C@@H]1CCCN1C(=O)[C@H](CO)NC(=O)[C@H](C)NC(=O)[C@H](CC(=O)O)NC(=O)[C@H](CCC(=O)O)NC(=O)[C@@H]1CCCN1C(=O)[C@@H]1CCCN1C(=O)[C@H](CCCCNC(=O)COCCOCCNC(=O)COCCOCCNC(=O)CC[C@H](NC(=O)CCCCCCCCCCCCCCCCC(=O)O)C(=O)O)NC(=O)[C@H](CCC(=O)O)NC(=O)[C@@H]1CCCN1C(=O)[C@H](C)NC(=O)CC(C)C)C(=O)N[C@@H](CCC(N)=O)C(=O)N[C@@H](CCCNC(=N)N)C(=O)N[C@@H](Cc1ccc(O)cc1)C(=O)N[C@@H](Cc1ccc(O)cc1)C(=O)N[C@H](C(=O)N[C@@H](CO)C(=O)N[C@@H](CC(C)C)C(=O)N[C@@H](CCCNC(=N)N)C(=O)N[C@@H](Cc1c[nH]cn1)C(=O)N[C@@H](Cc1ccc(O)cc1)C(=O)N[C@@H](Cc1ccc(O)cc1)C(=O)N[C@@H](CC(N)=O)C(=O)N[C@@H](Cc1c[nH]c2ccccc12)C(=O)N[C@@H](CC(C)C)C(=O)N[C@H](C(=O)N[C@@H](CCCNC(=N)N)C(=O)N[C@@H](CCC(N)=O)C(=O)N[C@@H](CCCNC(=N)N)C(=O)N[C@@H](Cc1ccc(O)cc1)C(N)=O)[C@@H](C)O)C(C)C

*1 amine or outer side, *2 acyl side, *3 side chain or, on linkers, in order; H or OH if unused. Side-chain parts run from the residue outwards. The star is where a group is joined. C18 diacid = O=C(O)CCCCCCCCCCCCCCCCC(=O)*; γGlu = O=C(O)[C@H](CCC(=O)[*:2])N[*:1]; Isovaleryl = CC(C)CC(=O)*; AEEA = NCCOCCOCC(=O)O

The experiment has as its target T1, human neuropeptide Y2 receptor (human, UniProt P49146 1-381).
T1 construct: whole, on cells; also called hNPY2 receptor; hNPY2-R
T1 sequence (looked up): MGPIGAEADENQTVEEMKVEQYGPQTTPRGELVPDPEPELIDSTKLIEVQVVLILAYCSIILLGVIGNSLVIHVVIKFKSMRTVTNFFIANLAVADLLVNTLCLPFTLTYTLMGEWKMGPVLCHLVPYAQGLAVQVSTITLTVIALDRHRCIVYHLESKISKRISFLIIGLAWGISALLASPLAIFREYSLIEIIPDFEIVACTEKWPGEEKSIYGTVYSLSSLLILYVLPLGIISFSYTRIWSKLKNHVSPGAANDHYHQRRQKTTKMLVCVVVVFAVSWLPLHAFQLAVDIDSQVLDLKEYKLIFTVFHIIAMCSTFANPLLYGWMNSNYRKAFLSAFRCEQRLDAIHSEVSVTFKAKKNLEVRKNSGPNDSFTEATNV
Nature of the experiment: radioligand competition (125I-PYY(1-36)), hNPY2R membranes. An outline of the steps:
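Commercial human Y2 receptor membranes (0.5 μg protein/well) were incubated with peptide for 2 h at room temperature in 50 mM HEPES, 5 mM MgCl₂, 1 mM CaCl₂, pH 7.4, with 0.2% ovalbumin. Bound radioligand was separated on PEI-soaked GF/C filters and counted by scintillation, and IC₅₀ came from nonlinear sigmoidal regression.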
Background: Displacement assays read how much labelled ligand stays bound in the presence of the test substance.
In general, Ki refers to the dissociation constant of the complex between target and ligand, obtained from inhibition or displacement. A lower Ki goes with higher affinity. In the case of B1, the affinity, expressed as Ki, was 8.53 nM. To B2 belongs 5.95 nM; to B3, 1.26 nM. For the molecule B4, affinity was put at a Ki of 3.13 nM. Molecule B5 gave a Ki of 3.35 nM.

As to B6, the Ki came to 0.4 nM.
